{"source": "the supplement of paper PMC12636428"}
{"tested_on": "Saccharomyces cerevisiae", "experiment": "transcriptional activation domain activity (GFP:mCherry ratio, weighted mean of sorted bins, harmonized to initial dataset scale) (arbitrary fluorescence ratio units); higher = stronger transcriptional activation", "details": "beta-estradiol 1 µM; induction time 4 h", "procedure": "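53-aa protein tiles (fungal proteins plus yeast TF control tiles) fused C-terminally to a DBD-estrogen-binding domain-mCherry synthetic TF, integrated in S. cerevisiae (URA3 locus) with a GFP reporter. Cells were induced with 1 uM beta-estradiol for 4 h at 30 C, FACS-sorted into 8 bins by GFP:mCherry ratio and barcodes sequenced. Activity is the read-weighted mean bin fluorescence (GFP:mCherry), averaged over barcodes (median 12); tiles under 50 reads were discarded. New active-learning values were harmonized by linear fit onto the scale of the initial (Hummel et al.) dataset. The assay saturates at low and high signal.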"}
{"sequence": "TVEFLLPFLSFSLLGCLFIFYFIFFLCFLFFFSQTFCFFISSNCWCFVSNLLP", "transcriptional activation domain activity": 34700}
{"sequence": "KYLSTCLKSCNTQLLDGILNTFARIFLSLGHLVEIMPELGTSILFQTYLFALQ", "transcriptional activation domain activity": 52900}
{"sequence": "MPLSPPLYFIVFLYLQFQLYAYFICYFYILLSFYSSTHPVLSFYPLYYPFYLL", "transcriptional activation domain activity": 61300}
{"sequence": "YFVYLLQLIYYICFSIGVSFSMKVFDYVTFMDSITGHAGHMLCVCIFFLIGAV", "transcriptional activation domain activity": 75800}
{"sequence": "FSLGTVLLALCRYLPFGTILQIYVLFLRVESPLCVNGYRAIAFPVVCLWVLLV", "transcriptional activation domain activity": 52600}
{"sequence": "TFVERVYTCLNYRIYKIKILGGTCALLIFVWYFPGFVLRNVLVGMLGHVVLSI", "transcriptional activation domain activity": 65400}
{"sequence": "FDYDMFFRDSSKEGNNLFGEFLEDDDDDKKAANMSDDESSLIKNQLINEEPEL", "transcriptional activation domain activity": 41400}
{"sequence": "AKEDEGEKGKNKDKSKKEEEKKEEGEKKEEGEVKGVKEVEELKVEQPKEEVKL", "transcriptional activation domain activity": 17700}
{"sequence": "MPSFTFAWPDRAYFYSLLVVSLLSAKFLHLFSHLTALPIFLFLLYFPTFVFLD", "transcriptional activation domain activity": 71900}
{"sequence": "GTLNAQVTICEYSSTGQPLNGQGGCYNLHPVFNWIHHCIMSIFLVFMIAWLPL", "transcriptional activation domain activity": 78500}
{"sequence": "MPPTSSSVSRSSFSRGRTSSCRPRYSSSRPTSSSTSGSSRRTARSSPSASPRS", "transcriptional activation domain activity": 11000}
{"sequence": "AASKKERQSESHASSKRARSSKNGRGADADSSDEEEAGRSSSRKSRRTSTGDR", "transcriptional activation domain activity": 30200}
{"sequence": "LSYCHRPVFTCCDLYRTCLYCSIFYLLSFPILLPPSISLHIILLFSHTILIIL", "transcriptional activation domain activity": 31700}
{"sequence": "YDKKTNVLGFDDGTFDNKVFNRTNFEEKAPFDIPLDEFFTELEKHSNVSQFNT", "transcriptional activation domain activity": 112000}
{"sequence": "PSCCLSFFPDFSFFSVFFSLLVYFPFRALYDLLFVDLLLILFLFILIFFHLFL", "transcriptional activation domain activity": 33000}
{"sequence": "MLYYYHYLAVQSGLKRKYAFKNMYLCLLLYSLFFVFASINIVHLIKWQCYFFV", "transcriptional activation domain activity": 45800}
{"sequence": "FPAHFLSLLLTPISFSPLPIFPCTYINFLPLLQYLLLGNFFFGCIIWRPMTFC", "transcriptional activation domain activity": 59000}
{"sequence": "ANGDDSAAPKPEGQEDKPVESNGASASAAAPSEPQQQEGQPKAEPAEPAPATV", "transcriptional activation domain activity": 26400}
{"sequence": "EGEEGEEGEEGEEGEEGTCCASPLQSLALSRLRLGLSLLVDCISIESMRTYRL", "transcriptional activation domain activity": 34500}
{"sequence": "MIVFSPISFVGTLWVVSCCLFFKFPLPLPFPLPLPFFFFVSLFFLYLSRKIRA", "transcriptional activation domain activity": 28200}
{"sequence": "QSQAPARKKGAGGKEGKKGKGGKEGKEKVEKESKKKRKAEAEVVVGDEAAAAA", "transcriptional activation domain activity": 33800}
{"sequence": "TTTGTTTTGTTATPSSSPETKPNKIPISMQGYAYSGGGRAIARVDVSLDNGRT", "transcriptional activation domain activity": 37700}
{"sequence": "LGVLLLLLLYANVVLLIYHAPTTRKPFDLAFIHAPVRAFMLLPLTILFPYSLF", "transcriptional activation domain activity": 57300}
{"sequence": "SSAASAGGEGEGKDGKRKKDGQEEEEEEDKGSKKVKKNDGGAKQTKEGAKTSD", "transcriptional activation domain activity": "< 6570"}
{"sequence": "MAKKASGSAEKKGGDKADKKGKAKAKADDSDVEDKGSKGKGALKAATAVNVRH", "transcriptional activation domain activity": 9660}
{"sequence": "MMLPLVQGWGSTDGFFIFIFIFFIFAFLFNLSIYRSFFFLPFLFFYMEVLLRL", "transcriptional activation domain activity": 73300}
{"sequence": "SLIGIGITILQQLSEISFLPMTTFNISRCLWRLSLLTILACVNFGPSIYIFWF", "transcriptional activation domain activity": 51500}
{"sequence": "PHHKWLVPTPFASHAFHPVDGYAQSVPYHLFVFLFPMHRLLYLILFVAVNFWS", "transcriptional activation domain activity": 48000}
{"sequence": "RMGRWKHGWRKWWWKFYKWCFLWMIEVIRVVKVVGIVIVGCIYLGLRFFIFVE", "transcriptional activation domain activity": 57000}
{"sequence": "IKLMDLLIILLKIHGFRLKYFLLTNDLFPKIMLLCRANHLSLQLCPVRFLRIC", "transcriptional activation domain activity": 81100}
{"sequence": "RDRRRRSRSRSRDRRNKRRRRELEDRSKRRRSKSRVKNEETSEAEKRGRRRKP", "transcriptional activation domain activity": 37900}
{"sequence": "GERDIDVSSIEDVVKRECKKRVENEKLAQVGYAYDLAHSKAAAHLEAVKKLRK", "transcriptional activation domain activity": 32900}
{"sequence": "RVLETPAIFPSFLNTALFPMPFIVGLILFFFFALFPFPLPFLSPSFFPSILQY", "transcriptional activation domain activity": 43200}
{"sequence": "SGDADEDGNGHGTHCSGTVAGKKYGVAKKASVYAVKVLRSNGSGSMSDVVKGV", "transcriptional activation domain activity": 45000}
{"sequence": "HSLGSNASIDHLYTYTHAYIYTLYIWLPKMFSFFPFAIIFFLCMLLLFFIFIF", "transcriptional activation domain activity": 64600}
{"sequence": "MDSGTLVGGANADGLVEIPLPGHDSIHLHVTHPRVMFLLTFLVSAACKRDPVS", "transcriptional activation domain activity": 27100}
{"sequence": "PNSTGDDPSRLRRAHRKSPGGCQSCKRRRVKCDEKVSCSNCRRRREHCHAGQQ", "transcriptional activation domain activity": 56900}
{"sequence": "QENTLPATQANSSLLETYPIVQSNPVTTTIKESPNSIMAGWDNWESDMVWRDV", "transcriptional activation domain activity": 90100}
{"sequence": "IVLGFLPIKSWQQHCFYIIMSFGSFVSTAFYSRFVELWGLLWPLWYLTILICV", "transcriptional activation domain activity": 42600}
{"sequence": "MCVFHFLPWLLFPSPLISLFFVFFILFSFFVFFFLVPSSCPSFISFFPVSCLF", "transcriptional activation domain activity": 38000}
{"sequence": "LVGLDGRAKINCHFFAYVAFGSASLLVVFHVAFLINVSDVVLLLVMLVGLLRL", "transcriptional activation domain activity": 31900}
{"sequence": "VDNQFLSTRSIVTEACRKRGIYLTWIDSDPDILNYLQLSTFQFIVLLMLPLTP", "transcriptional activation domain activity": 42900}
{"sequence": "IKITKEHKWIIVFKIRYKLFKYLVILFKLTNGASLFSYFINSLLFYNLLNNFY", "transcriptional activation domain activity": 54600}
{"sequence": "MIASHPSPFLSRLFGLPLLFFSSFIEVSLFFLFFLPSLRFLFFFFPSLALFFF", "transcriptional activation domain activity": 42700}
{"sequence": "LNPDYIVGLSSLILVMCYIYKACYVSLLLSMHPLILLCMLCSSFTFIAIIVMI", "transcriptional activation domain activity": 47700}
{"sequence": "EAKAEEAAPTEAPAADAPAAEPAAEASATEEAKPAEAAKEEKKEDRPKSPSLL", "transcriptional activation domain activity": 8420}
{"sequence": "RHASRHASRHASRDASPERRTLRSNLAAAFSGHGRRSRPASPERGGGGGGGAG", "transcriptional activation domain activity": 26800}
{"sequence": "VCKLLRLETLRWIFREFHWKLHLRKRFLPYHLLTYMRTLRITANNSIKHLSFN", "transcriptional activation domain activity": 41000}
{"sequence": "VCQPLSPPVTGVLLVSFLPLFSRAFLAFLLSTLWLFSPLSDHILYYFCFYLAL", "transcriptional activation domain activity": 35200}
{"sequence": "EFVQVAAKPVAKKEESSDEDSDDESEDEKPAAKKAAAPVKVCSGFPYANIALI", "transcriptional activation domain activity": 32200}
{"sequence": "AAEKPAEEQPAETLVVEAKEVEEPKAAAKKGKKKAAKKEAEKVVEEQAVETPA", "transcriptional activation domain activity": 32500}
{"sequence": "ADEEPTSSLYRSNAKEVSRITTGSCSEIKNKLAGMQLGHNKQVSICSSGLCVP", "transcriptional activation domain activity": 72000}
{"sequence": "ASASPARAPAAEVPPPVEIHVGDRCEVDRATGVARGTVRFVGEAEMPPPRPGA", "transcriptional activation domain activity": 42400}
{"sequence": "MLFSTFFHFMILLCFLLLLCFFYFYDFTYLYGPPMIFYFYYFSLCLYLNKLQF", "transcriptional activation domain activity": 41600}
{"sequence": "LGAIIYIYLCCHGSLTMVDLCTLLALNILNNVDGQCTRILCWWVSFAWCMYPG", "transcriptional activation domain activity": 58800}
{"sequence": "PELVPLDLKNPELDSSFDLNMNLDLNLNLDSNFNIALNRSDSSGSTMNLDYKL", "transcriptional activation domain activity": 101000}
{"sequence": "RGGGRKKKEADGEDGETTPKKTPRKRAAKEAEDGDASPKKKGRPAKAKPRQEP", "transcriptional activation domain activity": 17900}
{"sequence": "RKPEAAAEKTAEAPEATGGEGTRRRASGRGRGRGRNGRGGRSGRAEGEEKKDE", "transcriptional activation domain activity": 31500}
{"sequence": "KEEAGEEAEEASPAPSEQKEEAPPSGQKPQANTGKKKDQASPAKKTGATAAAK", "transcriptional activation domain activity": 13700}
{"sequence": "VDNLLLPLAIHHRFLSYCLYIIGFVYFVYSLEKGHYKFQFTQFCITHMTLFLV", "transcriptional activation domain activity": 50900}
{"sequence": "GSKTRSTTSRDRSVRNDDKKSTTSGRRSVVSGSKEERRRRSSKKSVPAASETA", "transcriptional activation domain activity": 34600}
{"sequence": "GAYYLVSGLNGFELYEFDDNYHCGCCRDVHYRLFWFLIETISVLHGRWVFLQV", "transcriptional activation domain activity": 28800}
{"sequence": "GGEDIAAAENTGGSPAAGSGRGRGRSSRGGRGRGSGRGRGRGGSNAAGGSAAG", "transcriptional activation domain activity": 16500}
{"sequence": "MGYGEQRGSFGGRGGRGGSRGGRGGFGGGDRFNQGPPSEVVVVGAFVSACEGE", "transcriptional activation domain activity": 52900}
{"sequence": "TSLVYPIHSSDTGDTLSSGLETPENSNFNSDSGIKEDFEAFRALLPLGKLIYD", "transcriptional activation domain activity": 69500}
{"sequence": "VRLLIRCTRRSLYFWACLCCSWGIILHSLFITLANFNVLQSYGSIVIIHLTWC", "transcriptional activation domain activity": 74300}
{"sequence": "SIKVTRYLLNLAHCTNDQWFYYIVFFFAELVVYTIMIVAIGSILFQWRFFCLV", "transcriptional activation domain activity": 52100}
{"sequence": "GFVVQQLQKLFLTCIALKLVQRVNSLNKLFKTAVGSLPVILSLLGLWIILFLF", "transcriptional activation domain activity": 47200}
{"sequence": "TIGFVGFVMSLQKGYLKQQFGLFCWVHMSLLIIVLSSHFIVNNILEGLIWFWV", "transcriptional activation domain activity": 58700}
{"sequence": "DNMSLLNLPILEETVSSGQDDKVEPDEEDIWNYLPSSSSQQEDSSRALKKNTN", "transcriptional activation domain activity": 20900}
{"sequence": "GEGKRGGVGKKGKGKTKGKEGSIGKSNAKKGASETPKKEKEKARGAEASDKGS", "transcriptional activation domain activity": 45600}
{"sequence": "WAQERGVYANVFGYPGGVAWAMLVARICQLYPNAVSAVVIRKFFQIYSQWKWP", "transcriptional activation domain activity": 29700}
{"sequence": "PPCLKLAGWLAFVVGSFCQSTNLVVIQISQNNWDCFSIWRTLILLVIFFSLPA", "transcriptional activation domain activity": 58500}
{"sequence": "HMESDEEKERKPKKARKQKAEGSGDEAEPKKKRRGKLKRGGGDHEEAAVAAGE", "transcriptional activation domain activity": 39200}
{"sequence": "MHSSGWLWANISLLFPRLFFLTFFSYLLCDLAFRFDRLVCFLWLLFFQWSFII", "transcriptional activation domain activity": 52200}
{"sequence": "IAMQPGEHQYDFEAHDFGLDLSDDLITQLEAGIGEYAWGSMPMDGNFWDQLYW", "transcriptional activation domain activity": 127000}
{"sequence": "VKHRVIHLLVVFVAFFFAVTPVYFDYLCCGSPLVLFSSTLGMIIHLILFFFCL", "transcriptional activation domain activity": 49000}
{"sequence": "PNIILPLNPCRSGEFCELYPSAANLWAMFLHLILFCMQLPFILSIPFWLLFPV", "transcriptional activation domain activity": 52900}
{"sequence": "MHASFIFLSSTSGVIHTYILYLDLVAYFLLSLGGFVLIIGFWRWGFCCFFLPS", "transcriptional activation domain activity": 69100}
